Reference: patent publication CN113372448A

Target: CIB-OVA (cimbuterol coupled to ovalbumin, detection/coating antigen) (UniProt P01012)
Assay: indirect ELISA of soluble scFv (periplasmic extract), steps as in Example 2 (CIB-OVA coated); negative control pCANTAB-5E/HB2151

Sequence of UniProt P01012 (P01012 2-386 limits assumed, form in doubt): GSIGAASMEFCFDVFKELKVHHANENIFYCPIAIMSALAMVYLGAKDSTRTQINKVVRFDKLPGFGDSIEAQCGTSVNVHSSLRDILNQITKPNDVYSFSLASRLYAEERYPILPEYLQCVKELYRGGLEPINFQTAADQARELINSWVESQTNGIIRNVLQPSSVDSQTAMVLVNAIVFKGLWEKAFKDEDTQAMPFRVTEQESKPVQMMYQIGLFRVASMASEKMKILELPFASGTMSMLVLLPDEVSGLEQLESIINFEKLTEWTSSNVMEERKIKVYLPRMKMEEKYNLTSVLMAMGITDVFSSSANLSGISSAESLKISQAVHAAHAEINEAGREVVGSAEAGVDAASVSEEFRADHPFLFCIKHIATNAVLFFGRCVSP

B1: 5-CIB-ScFv (soluble anti-CIB single-chain antibody expressed from CIB-ScFv-pCANTAB5E in E. coli HB2151) (scFv, not shown: small tags and cut ends)
scFv: QVQLQESGADLVRPGTSVKVSCKASGYAFTNYLIEWVKQRPGQGLEWIGVINPGSGGTNYNEKFKGKATLTTDKSSSTAYMQLNSLTSEDSAVYFCKRPPMITTRRTGFDYWGQGTTVTVSSGGGGSGGGGSGGGGSDIELTQSPTTMAASPGEKITITCSATSSLSSNYLHWYQQKPGFSPKLLIYRTSNLASGVPTRFSGSGSGTSYSLTIGTMEAEDVATYYCHQYHRSPFTFGSGTKLEIKR
B1 gave a 效价 (titre, P/N>2.1) (dilution factor (1:x)) of 160.
